Data taken from PMC5816542, “In vitro and in vivo characterization of three Cellvibrio japonicus glycoside hydrolase family 5 members reveals potent xyloglucan backbone-cleaving functions” (Biotechnology for Biofuels, 2018).

Tests used:
CjGH5D = biological target: T1, CjGH5D (Cellvibrio japonicus, UniProt B3PD52); experiment: time-dependent inactivation, residual XXXG-CNP hydrolysis at […] nm; type: biochemical; conditions: covalent; irreversible active-site affinity label; 20 mM phosphate pH 7.5, 40 °C, 0.1 mg/mL BSA; XXXG-CNP substrate
T1 construct: gene cel5D; GH5_4 catalytic module, lipoprotein signal peptide and serine-rich linker removed; N-terminal His6 (pET28a), E. coli; borders 96-468 are those of the crystal model

purified protein [1] = substrate: O=[N+]([O-])c1ccc(O[C@@H]2O[C@H](CO)[C@@H](O[C@@H]3O[C@H](CO[C@H]4OC[C@@H](O)[C@H](O)[C@H]4O)[C@@H](O[C@@H]4O[C@H](CO[C@H]5OC[C@@H](O)[C@H](O)[C@H]5O)[C@@H](O[C@@H]5O[C@H](CO[C@H]6OC[C@@H](O)[C@H](O)[C@H]6O)[C@@H](O)[C@H](O)[C@H]5O)[C@H](O)[C@H]4O)[C@H](O)[C@H]3O)[C@H](O)[C@H]2O)c(Cl)c1; experiment: purified protein; type: biochemical, Cellvibrio japonicus
purified protein [2] = substrate: O=[N+]([O-])c1ccc(O[C@@H]2O[C@H](CO)[C@@H](O[C@@H]3O[C@H](CO[C@H]4OC[C@@H](O)[C@H](O)[C@H]4O[C@@H]4O[C@H](CO)[C@H](O)[C@H](O)[C@H]4O)[C@@H](O[C@@H]4O[C@H](CO[C@H]5OC[C@@H](O)[C@H](O)[C@H]5O[C@@H]5O[C@H](CO)[C@H](O)[C@H](O)[C@H]5O)[C@@H](O[C@@H]5O[C@H](CO[C@H]6OC[C@@H](O)[C@H](O)[C@H]6O)[C@@H](O)[C@H](O)[C@H]5O)[C@H](O)[C@H]4O)[C@H](O)[C@H]3O)[C@H](O)[C@H]2O)c(Cl)c1; experiment: purified protein; type: biochemical, Cellvibrio japonicus
purified protein [3] = substrate: O=[N+]([O-])c1ccc(O[C@@H]2O[C@H](CO)[C@@H](O[C@@H]3O[C@H](CO)[C@@H](O[C@@H]4O[C@H](CO)[C@@H](O)[C@H](O)[C@H]4O)[C@H](O)[C@H]3O)[C@H](O)[C@H]2O)c(Cl)c1; experiment: purified protein; type: biochemical, Cellvibrio japonicus; conditions: 50 mM phosphate pH 7.5, 55 °C
purified protein [4] = substrate: O=[N+]([O-])c1ccc(O[C@@H]2O[C@H](CO)[C@@H](O[C@@H]3O[C@H](CO)[C@@H](O[C@@H]4O[C@H](CO)[C@@H](O[C@@H]5O[C@H](CO)[C@@H](O)[C@H](O)[C@H]5O)[C@H](O)[C@H]4O)[C@H](O)[C@H]3O)[C@H](O)[C@H]2O)c(Cl)c1; experiment: purified protein; type: biochemical, Cellvibrio japonicus; conditions: 50 mM phosphate pH 7.5, 55 °C

O=C(CBr)N[C@@H]1O[C@H](CO)[C@@H](O[C@@H]2O[C@H](CO[C@H]3OC[C@@H](O)[C@H](O)[C@H]3O)[C@@H](O[C@@H]3O[C@H](CO[C@H]4OC[C@@H](O)[C@H](O)[C@H]4O)[C@@H](O[C@@H]4O[C@H](CO[C@H]5OC[C@@H](O)[C@H](O)[C@H]5O)[C@@H](O)[C@H](O)[C@H]4O)[C@H](O)[C@H]3O)[C@H](O)[C@H]2O)[C@H](O)[C@H]1O [XXXG-NHCOCH2Br]
KI (inactivation) (CjGH5D): 1780 ± 170 µM

B1: CjGH5F (Cellvibrio japonicus Ueda107) (protein)
chain: FSVTVGGSSSGTMRNLTSVQLARLMGAGWNLGNSLEAIGSETAWGNPATTQALINAVKAAGFKTIRIPVSWSQYADANYNISSSWMARVKQVVDYAKNAGFYVIINIHWDGGWMQPTYANQAAVNSRLTKLWTQIANNFKNYDDYLLFAGTNEVMVDGDYGTPTYEYYTVQNSFNQTFVNTVRATGGNNAVRHLVVQGFNTNIDHTISFVSIPSDSASNRLMMEVHYYDPYNFTLNASSNIWQWGANATNSSATETWANETYVNTQFQRMKTRFIDNGVAVILGEFGAISRTNIPGAESYRTYWNQYITRAAYTRGLVPIYWDNGYTANNGMGLFDRYNGAQVYPNLISTIINAAQ
notes: C-terminal GH5_4 catalytic module, signal peptide and FN3 domain removed; N-terminal His6 (pET28a), E. coli
Km (purified protein [1]; 50 mM phosphate pH 7.0, 50 °C): 70 ± 10 µM
kcat (purified protein [1]; 50 mM phosphate pH 7.0, 50 °C): 2.82 ± 0.0667 s⁻¹
kcat/Km (purified protein [1]; 50 mM phosphate pH 7.0, 50 °C): 40200 ± 5830 M⁻¹ s⁻¹
Km (purified protein [2]; 50 mM phosphate pH 7.0, 50 °C): 30 ± 2 µM
kcat (purified protein [2]; 50 mM phosphate pH 7.0, 50 °C): 6.55 ± 0.133 s⁻¹
kcat/Km (purified protein [2]; 50 mM phosphate pH 7.0, 50 °C): 218000 ± 15000 M⁻¹ s⁻¹

B2: CjGH5E (Cellvibrio japonicus Ueda107) (protein)
chain: SSSGSSLTSVELTRLMGVGWNVGNTLDAIGGETNWGNPLITQQLISSVKAAGFKTLRVPVAWSKFTNAATFTIDPAWLNRVEQVVNYALNEDMYVMINIHWDGGWMQPTYAQQAYVNNRLSIMWTQIANHFRNYGDKLLFAGTNEVMVEGDYGTPTVEYYTVQNSFNQTFVDTVRATGGNNANRFLVVQGFNTNIDHTVNFARIPTDSASNRLLMEVHYYDPYNFTLNTSSNITQWGAIATNPAVTETWANEAYADAQFEKMRTNFINRGVGVILGEYGVVSRLNVSGHETFRVYYNQYITKSAYQRGLVPVYWDNGYSGDGGFALFDRNSGNQLYPDIIRAIVNATF
notes: GH5_4 catalytic module, signal peptide and CBM2-CBM10 removed; N-terminal His6 (pMCSG53), E. coli
Km (purified protein [3]): 11800 ± 600 µM
kcat (purified protein [3]): 3.18 ± 0.117 s⁻¹
kcat/Km (purified protein [3]): 270 ± 16.7 M⁻¹ s⁻¹
Km (purified protein [4]): 5020 ± 350 µM
kcat (purified protein [4]): 3 ± 0.117 s⁻¹
kcat/Km (purified protein [4]): 598 ± 46.7 M⁻¹ s⁻¹
Km (purified protein [1]; 50 mM phosphate pH 7.5, 55 °C): 10 ± 1 µM
kcat (purified protein [1]; 50 mM phosphate pH 7.5, 55 °C): 4.23 ± 0.0667 s⁻¹
kcat/Km (purified protein [1]; 50 mM phosphate pH 7.5, 55 °C): 423000 ± 43300 M⁻¹ s⁻¹
Km (purified protein [2]; 50 mM phosphate pH 7.5, 55 °C): 10 ± 1 µM
kcat (purified protein [2]; 50 mM phosphate pH 7.5, 55 °C): 5.53 ± 0.15 s⁻¹
kcat/Km (purified protein [2]; 50 mM phosphate pH 7.5, 55 °C): 553000 ± 56700 M⁻¹ s⁻¹

B3: CjGH5D (Cellvibrio japonicus Ueda107) (protein)
chain: GLYPSYNTSPAAPDSTGMQSTAVQLAGKIRLGWNIGNTMEAIGGETAWGNPMVSNELLKLVKDSGFDAVRIPVAWDQYANQESAEISAAWLNRVKQVVQMAIDNELYVLINIHWDGGWLENNITPAKKDENNAKQKAFWEQIATHLRDFDEHLLFAGTNEPNAENAEQMDVLNSYLQTFVDAVRSTGGKNAYRVLVLQGPVTDIEKTNELWTHMPADTATDRLMAEVHFYTPYNFALMRQDESWGKQFYYWGEGFLSTTDTERNPTWGEEATIDQLFDLMKTKFVDQGIPVVLGEFSAMRRTNLTGDALTLHLAGRAYYHKYVTQQALARGLLPFYWDNGGNDNFSSGIFNRQQNTVFDQQVLDALLEGAGAQ
notes: GH5_4 catalytic module, lipoprotein signal peptide and serine-rich linker removed; N-terminal His6 (pET28a), E. coli; borders 96-468 are those of the crystal model
Km (purified protein [1]; 50 mM phosphate pH 7.5, 50 °C): 810 ± 100 µM
kcat (purified protein [1]; 50 mM phosphate pH 7.5, 50 °C): 4.68 ± 0.2 s⁻¹
kcat/Km (purified protein [1]; 50 mM phosphate pH 7.5, 50 °C): 5780 ± 750 M⁻¹ s⁻¹
Km (purified protein [2]; 50 mM phosphate pH 7.5, 50 °C): 180 ± 20 µM
kcat (purified protein [2]; 50 mM phosphate pH 7.5, 50 °C): 2.7 ± 0.0667 s⁻¹
kcat/Km (purified protein [2]; 50 mM phosphate pH 7.5, 50 °C): 15000 ± 1720 M⁻¹ s⁻¹
